Assay results as given in patent publication US20060115482A1, “Modifications of histone proteins as indicators of cell proliferation and differentiation” (The Regents of the University of California, priority 2004, published 2006).

Columns and labels:
H2B-S33 = test: In vitro kinase assay (γ32P-ATP, SDS-PAGE, autoradiography, scintillation counting); format: biochemical, Drosophila; details: for H2B phosphorylation in vitro (qualitative): autoradiography; for Turnover values for phosphorylation of H2B-S33: 3 μg enzyme
Method: Kinase reactions were programmed with 1 μg RAP74, 1 μg recombinant histone, 2 μg polynucleosomes, 2 μg histone octamers, or 300 ng histone peptide, and contained 400 ng endogenous TFIID or 250 ng recombinant TAF1 derivatives and 0.25 μCi γ^32P-ATP. Reactions were performed in 20 μl kinase buffer (25 mM Hepes (pH 7.6), 10% glycerol, and 400 mM NaCl) for 25 min at 25° C. Reaction products were analyzed by SDS-PAGE using 8%—(for recombinant proteins), 15%—(for histones), or 18% (for peptides) gels. After electrophoresis, gels were dried and exposed to X-ray film.
To quantify kinase reactions, reactions products were separated by SDS-PAGE and detected by coomassie blue staining. Radiolabeled H2B was detected by autoradiography, excised from the gel, and analyzed by scintillation counting.
To measure the kinase activity of TFIID, TAF1, CTK, and mutant CTK-derivatives, reaction products of in vitro kinase assays were separated by SDS-PAGE and stained with coomassie blue. Radiolabeled H2B, H2BT and controls were excised from the gel and incorporation of radioactivity was determined by scintillation counting. Turnover values for phosphorylation of H2B-S33 were determined by measuring incorporation of radiolabeled phosphate groups into H2B in the presence of 3 μg TAF1, TFIID, or CTK-derivatives and 3 μg H2B or 12 μg nucleosomes. The turnover values were: TFIID (nucleosomes: 3.3/sec; H2B: 2.6/sec); TAF1: (nucleosomes: 2.5/sec; H2B: 2.5/sec); CTK: (nucleosomes: 2.6/sec; H2B: 4.4/sec).

acetylated H4 = molecular target: T1, acetylated H4 (Homo sapiens, UniProt P62805); test: Acetylated-lysine interaction assay; format: binding; details: H4 peptide acetylated at lysine 5, 8, 12, 16
T1 construct: H4 peptide (amino acids 1-20); host or cells: H4 peptide made by chemical synthesis; Flag-CTK proteins made in Sf9 cells with baculovirus
Method: FIG. 6. (A) Silver stained gel corresponding to the autoradiograms shown inn FIG. 2B) of in vitro kinase assays containing γ^32P-ATP, native nucleosomes (top) or recombinant H2B (bottom), and TFIID, TAF1, or TAF1 derivatives (B) CTK(D1548A) binds acetylated histone H4. Western blot of protein:protein interaction assays. Anti-Flag antibody agarose beads loaded with recombinant Flag-CTK, Flag-CTK(D1548), or FLAG-110 (beads) were incubated with H4 peptide (amino acids 1-20) or H4 peptide [acetyl(H4)] acetylated at lysine 5, 8, 12, 16. Precipitated peptides were separated by SDS-PAGE, electrophoretically transferred onto nitrocellulose, and detected using antibodies to H4 (top) and acetylated H4 (bottom). (C) The CTK phosphorylates serine residues in H2BT. A schematic representation of H2BT is shown on top with highlighted positions of threonines (T) and serines (S). […]
The interaction of CTK and CTK(D1548A) with unmodified and acetylated H4 peptides was monitored as described (14, 15). […]

| Molecule | H2B phosphorylation in vitro (qualitative) (H2B-S33) | Turnover values for phosphorylation of H2B-S33 (H2B-S33; substrate 3 μg H2B) [s⁻¹] | Turnover values for phosphorylation of H2B-S33 (H2B-S33; substrate 12 μg nucleosomes) [s⁻¹] | binding to acetylated H4 in vitro (acetylated H4) |
| --- | --- | --- | --- | --- |
| CTK: COOH-terminal kinase domain of Drosophila TAF1, amino acids 1496-2132 (protein) LFPVSAKKVPDYYRVVTKPMDLQTMREYIRQRRYTSREMFLEDLKQIVDNSLIYNGPQSAYTLAAQRMFSSCFELLAEREDKLMRLEKAINPLLDDDDQVALSFIFDKLHSQIKQLPESWPFLKPVNKKQVKDYYTVIKRPMDLETIGKNIEAHRYHSRAEYLADIELIATNCEQYNGSDTRYTKFSKKILEYAQTQLIEFSEHCGQLENNIAKTQERARENAPEFDEAWGNDDYNFDRGSRASSPGDDYIDVEGHGGHASSSNSIHRSMGAEAGSSHTAPAVRKPAPPGPGEVKRGRGRPRKQRDPVEEVKSQNPVKRGRGRPRKDSLASNMSHTQAYFLDEDLQCSTDDEDDDEEEDFQEVSEDENNAASILDQGERINAPADAMDGMFDPKNIKTEIDLEAHQMAEEPIGEDDSQQVAEAMVQLSGVGGYYAQQQQDESMDVDPNYDPSDFLAMHKQRQSLGEPSSLQGAFTNFLSHEQDDNGPYNPAEASTSAASGADLGMDASMAMQMAPEMPVNTMNNGMGIDDDLDISESDEEDDGSRVRIKKEVFDDGDYALQHQQMGQAASQSQIYMVDSSNEPTTLDYQQPPQLDFQQVQEMEQLQHQVMPPMQSEQLQQQQTPQGDNDYAWTF | strongly phosphorylated H2B | 4.4 | 2.6 | – |
| CTK(D1538A): CTK with catalytically important aspartic acid of the S/T-kinase motif mutated to alanine (protein) LFPVSAKKVPDYYRVVTKPMDLQTMREYIRQRRYTSREMFLEALKQIVDNSLIYNGPQSAYTLAAQRMFSSCFELLAEREDKLMRLEKAINPLLDDDDQVALSFIFDKLHSQIKQLPESWPFLKPVNKKQVKDYYTVIKRPMDLETIGKNIEAHRYHSRAEYLADIELIATNCEQYNGSDTRYTKFSKKILEYAQTQLIEFSEHCGQLENNIAKTQERARENAPEFDEAWGNDDYNFDRGSRASSPGDDYIDVEGHGGHASSSNSIHRSMGAEAGSSHTAPAVRKPAPPGPGEVKRGRGRPRKQRDPVEEVKSQNPVKRGRGRPRKDSLASNMSHTQAYFLDEDLQCSTDDEDDDEEEDFQEVSEDENNAASILDQGERINAPADAMDGMFDPKNIKTEIDLEAHQMAEEPIGEDDSQQVAEAMVQLSGVGGYYAQQQQDESMDVDPNYDPSDFLAMHKQRQSLGEPSSLQGAFTNFLSHEQDDNGPYNPAEASTSAASGADLGMDASMAMQMAPEMPVNTMNNGMGIDDDLDISESDEEDDGSRVRIKKEVFDDGDYALQHQQMGQAASQSQIYMVDSSNEPTTLDYQQPPQLDFQQVQEMEQLQHQVMPPMQSEQLQQQQTPQGDNDYAWTF | weak autophosphorylation and H2B trans-phosporylation activities | – | – | retains the ability to bind acetylated H4 in vitro |
